Experiment [1] concerns the target LRP2 CR89 Y1042W (human) (UniProt P98164). The experiment in a line: solid-phase assay; OD at the highest ligand concentration as percent of the highest OD of all ligands.
In experiment [2] the target is recombinant human LRP1 ligand binding cluster II (amino acids 786-1165, C-terminal Fc) (human). The experiment in a line: competition ELISA, inhibition of RAP d3 (2 nM) binding to coated LRP1 cluster II-Fc. On the technique in general: ELISA stands for enzyme-linked immunosorbent assay.
Sequence of recombinant human LRP1 ligand binding cluster II (amino acids 786-1165, C-terminal Fc) (human) (Q07954 786-1165): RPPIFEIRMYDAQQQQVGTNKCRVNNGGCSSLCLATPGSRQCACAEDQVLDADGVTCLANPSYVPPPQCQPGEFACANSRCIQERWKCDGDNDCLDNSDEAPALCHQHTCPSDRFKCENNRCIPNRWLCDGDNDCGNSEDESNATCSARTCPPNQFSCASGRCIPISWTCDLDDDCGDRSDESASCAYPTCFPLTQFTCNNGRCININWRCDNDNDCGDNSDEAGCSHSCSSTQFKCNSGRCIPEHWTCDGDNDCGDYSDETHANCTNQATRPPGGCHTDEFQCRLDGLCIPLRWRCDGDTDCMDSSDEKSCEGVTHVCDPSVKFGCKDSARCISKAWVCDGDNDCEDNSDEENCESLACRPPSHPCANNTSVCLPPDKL
The target is the same in experiment [3]. The experiment in a line: inhibitor pre-incubated with coated LRP1 cluster II-Fc, washed, then RAP d3 added; inhibition of RAP d3 binding.

The record followed here is US20100210517A1.

Sequence of mature human RAP (full-length) (P30533 35-357): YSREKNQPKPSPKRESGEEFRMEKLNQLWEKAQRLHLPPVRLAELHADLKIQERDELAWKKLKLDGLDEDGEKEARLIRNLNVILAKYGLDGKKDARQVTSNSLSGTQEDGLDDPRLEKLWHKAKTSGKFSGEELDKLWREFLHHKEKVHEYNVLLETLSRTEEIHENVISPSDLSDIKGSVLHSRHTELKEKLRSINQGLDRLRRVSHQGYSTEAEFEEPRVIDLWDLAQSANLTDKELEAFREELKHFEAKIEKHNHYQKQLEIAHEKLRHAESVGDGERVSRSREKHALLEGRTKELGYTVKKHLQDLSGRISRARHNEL
Sequence of LRP2 CR89 Y1042W (human) (P98164 1025-1102 Y1043W limits assumed): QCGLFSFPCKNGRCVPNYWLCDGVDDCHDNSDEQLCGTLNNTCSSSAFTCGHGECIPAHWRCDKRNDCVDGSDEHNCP
Sequence of RAP d3 (wild-type domain 3 of human RAP, amino acids 201-319 of mature RAP) (P30533 235-353 A264E): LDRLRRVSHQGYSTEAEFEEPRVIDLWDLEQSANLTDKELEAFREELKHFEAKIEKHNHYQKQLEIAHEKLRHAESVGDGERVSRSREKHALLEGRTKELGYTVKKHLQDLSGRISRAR

For the substance “RAP d3 (wild-type domain 3 of human RAP, amino acids 201-319 of mature RAP) (from UniProt P30533 235-353) (ligand)”, the % max bind in experiment [1] was 9%.
In the case of “mature human RAP (full-length) (from UniProt P30533 35-357) (ligand)”, the 50% effective concentration (EC50) (usually the concentration giving half of the maximal effect) in experiment [2] was found to be 0.5 nM; in experiment [3] it was 0.3 nM. The fold better EC50 than monomeric mRAPc peptide in experiment [2] was determined as 64 fold.
